Experimental data as given in patent US20050043234A1 (published 2005).
“And” between values parts separate entries of the source, which are not always exact repeats. Identical values can stand only once.

B1: FGFR3α-IIIc/Fc (Fc fusion, not shown: a dimerising Fc or GST; small tags and cut ends)
chain: ESLGTEQRVVGRAAEVPGPEPGQQEQLVFGSGDAVELSCPPPGGGPMGPTVWVKDGTGLVPSERVLVGPQRLQVLNASHEDSGAYSCRQRLTQRVLCHFSVRVTDAPSSGDDEDGEDEAEDTGVDTGAPYWTRPERMDKKLLAVPAANTVRFRCPAAGNPTPSISWLKNGREFRGEHRIGGIKLRHQQWSLVMESVVPSDRGNYTCVVENKFGSIRQTYTLDVLERSPHRPILQAGLPANQTAVLGSDVEFHCKVYSDAQPHIQWLKHVEVNGSKVGPDGTPYVTVLKTAGANTTDKELEVLSLHNVTFEDAGEYTCLAGNSIGFSHHSAWLVVLPAEEELVEADEAGSVYAG
B2: zFGF5 (ligand)
chain: EENVDFRIHVENQTRARDDVSRKQLRLYQLYSRTSGKHIQVLGRRISARGEDGDKYAQLLVETDTFGSQVRIKGKETEFYLCMNRKGKLVGKPDGTSKECVFIEKVLENNYTALMSAKYSGWYVGFTKKGRPRKGPKTRENQQDVHFMKRYPKGQPELQKPFKYTTVTKRSRRIRPTHPA
B3: FGFR1α-IIIc/Fc (Fc fusion, not shown: a dimerising Fc or GST; small tags and cut ends)
chain: RPSPTLPEQAQPWGAPVEVESFLVHPGDLLQLRCRLRDDVQSINWLRDGVQLAESNRTRITGEEVEVQDSVPADSGLYACVTSSPSGSDTTYFSVNVSDALPSSEDDDDDDDSSSEEKETDNTKPNRMPVAPYWTSPEKMEKKLHAVPAAKTVKFKCPSSGTPNPTLRWLKNGKEFKPDHRIGGYKVRYATWSIIMDSVVPSDKGNYTCIVENEYGSINHTYQLDVVERSPHRPILQAGLPANKTVALGSNVEFMCKVYSDPQPHIQWLKHIEVNGSKIGPDNLPYVQILKTAGVNTTDKEMEVLHLRNVSFEDAGEYTCLAGNSIGLSHHSAWLTVLEALEERPAVMTSPLYLE

Experiments:
Test in all cases: cell-based or functional assay
[1] = biological target: B2
[2] = biological target: FGFR2α-IIIc
[3] = biological target: FGFR3α-IIIc
[4] = biological target: FGFR1α-IIIb
[5] = biological target: FGFR1α-IIIc
[6] = biological target: FGFR2α-IIIb
[7] = biological target: FGFR2α-IIIc; remark: listed apart in the source
[8] = biological target: FGFR3α-IIIc; remark: listed apart in the source
[9] = biological target: FGFR3α-IIIb

Binder: B1
- Cell Proliferation (percent of control), BAF3/FGFR3α-IIIc cells with zFGF5, soluble receptor at 0 fold-excess [1]: 100 percent of control
- Cell Proliferation (percent of control), BAF3/FGFR3α-IIIc cells with zFGF5, soluble receptor at 0.8 fold-excess [1]: 85 percent of control
- Cell Proliferation (percent of control), BAF3/FGFR3α-IIIc cells with zFGF5, soluble receptor at 1.6 fold-excess [1]: 66 percent of control
- Cell Proliferation (percent of control), BAF3/FGFR3α-IIIc cells with zFGF5, soluble receptor at 3.2 fold-excess [1]: 37 percent of control
- Cell Proliferation (percent of control), BAF3/FGFR3α-IIIc cells with zFGF5, soluble receptor at 6.3 fold-excess [1]: 5 percent of control
- Cell Proliferation (percent of control), BAF3/FGFR3α-IIIc cells with zFGF5, soluble receptor at 12.5 fold-excess [1]: 1 percent of control
- Cell Proliferation (percent of control), BAF3/FGFR3α-IIIc cells with zFGF5, soluble receptor at 25 fold-excess [1]: 0.2 percent of control
- Cell Proliferation (percent of control), BAF3/FGFR3α-IIIc cells with zFGF5, soluble receptor at 50 fold-excess [1]: 0 percent of control
- Cell Proliferation (percent of control), BAF3/FGFR3α-IIIc cells with zFGF5, soluble receptor at 100 fold-excess [1]: 0 percent of control

Binder: B2
- EC50 of cell proliferation response [2]: ~10 ng/mL and ~20 ng/mL
- EC50 of cell proliferation response [3]: ~1 ng/mL and ~2 ng/mL
- Alamar Blue Units (cell proliferation), zFGF5 at 1.6 ng/ml [4]: 0 Alamar Blue Units
- Alamar Blue Units (cell proliferation), zFGF5 at 3.1 ng/ml [4]: 1.7 Alamar Blue Units
- Alamar Blue Units (cell proliferation), zFGF5 at 6.2 ng/ml [4]: 1.3 Alamar Blue Units
- Alamar Blue Units (cell proliferation), zFGF5 at 12.5 ng/ml [4]: 0 Alamar Blue Units
- Alamar Blue Units (cell proliferation), zFGF5 at 25 ng/ml [4]: 10.9 Alamar Blue Units
- Alamar Blue Units (cell proliferation), zFGF5 at 50 ng/ml [4]: 0 Alamar Blue Units
- Alamar Blue Units (cell proliferation), zFGF5 at 100 ng/ml [4]: 0 Alamar Blue Units
- Alamar Blue Units (cell proliferation), zFGF5 at 200 ng/ml [4]: 0 Alamar Blue Units
- Alamar Blue Units (cell proliferation), zFGF5 at 1.6 ng/ml [5]: 2.6 Alamar Blue Units
- Alamar Blue Units (cell proliferation), zFGF5 at 3.1 ng/ml [5]: 4.2 Alamar Blue Units
- Alamar Blue Units (cell proliferation), zFGF5 at 6.2 ng/ml [5]: 14.2 Alamar Blue Units
- Alamar Blue Units (cell proliferation), zFGF5 at 12.5 ng/ml [5]: 29.9 Alamar Blue Units
- Alamar Blue Units (cell proliferation), zFGF5 at 25 ng/ml [5]: 86 Alamar Blue Units
- Alamar Blue Units (cell proliferation), zFGF5 at 50 ng/ml [5]: 224 Alamar Blue Units
- Alamar Blue Units (cell proliferation), zFGF5 at 100 ng/ml [5]: 488 Alamar Blue Units
- Alamar Blue Units (cell proliferation), zFGF5 at 200 ng/ml [5]: 912 Alamar Blue Units
- Alamar Blue Units (cell proliferation), zFGF5 at 1.6 ng/ml [6]: 0.2 Alamar Blue Units
- Alamar Blue Units (cell proliferation), zFGF5 at 3.1 ng/ml [6]: 0.06 Alamar Blue Units
- Alamar Blue Units (cell proliferation), zFGF5 at 6.2 ng/ml [6]: 0 Alamar Blue Units
- Alamar Blue Units (cell proliferation), zFGF5 at 12.5 ng/ml [6]: 0.4 Alamar Blue Units
- Alamar Blue Units (cell proliferation), zFGF5 at 25 ng/ml [6]: 0.2 Alamar Blue Units
- Alamar Blue Units (cell proliferation), zFGF5 at 50 ng/ml [6]: 0.5 Alamar Blue Units
- Alamar Blue Units (cell proliferation), zFGF5 at 100 ng/ml [6]: 1.3 Alamar Blue Units
- Alamar Blue Units (cell proliferation), zFGF5 at 200 ng/ml [6]: 1.3 Alamar Blue Units
- Alamar Blue Units (cell proliferation), zFGF5 at 1.6 ng/ml [7]: 241 Alamar Blue Units
- Alamar Blue Units (cell proliferation), zFGF5 at 3.1 ng/ml [7]: 480 Alamar Blue Units
- Alamar Blue Units (cell proliferation), zFGF5 at 6.2 ng/ml [7]: 715 Alamar Blue Units
- Alamar Blue Units (cell proliferation), zFGF5 at 12.5 ng/ml [7]: 977 Alamar Blue Units
- Alamar Blue Units (cell proliferation), zFGF5 at 25 ng/ml [7]: 1310 Alamar Blue Units
- Alamar Blue Units (cell proliferation), zFGF5 at 50 ng/ml [7]: 1520 Alamar Blue Units
- Alamar Blue Units (cell proliferation), zFGF5 at 100 ng/ml [7]: 1720 Alamar Blue Units
- Alamar Blue Units (cell proliferation), zFGF5 at 200 ng/ml [7]: 1790 Alamar Blue Units
- Alamar Blue Units (cell proliferation), zFGF5 at 1.6 ng/ml [8]: 1400 Alamar Blue Units
- Alamar Blue Units (cell proliferation), zFGF5 at 3.1 ng/ml [8]: 2000 Alamar Blue Units
- Alamar Blue Units (cell proliferation), zFGF5 at 6.2 ng/ml [8]: 2580 Alamar Blue Units
- Alamar Blue Units (cell proliferation), zFGF5 at 12.5 ng/ml [8]: 3200 Alamar Blue Units
- Alamar Blue Units (cell proliferation), zFGF5 at 25 ng/ml [8]: 3760 Alamar Blue Units
- Alamar Blue Units (cell proliferation), zFGF5 at 50 ng/ml [8]: 3960 Alamar Blue Units
- Alamar Blue Units (cell proliferation), zFGF5 at 100 ng/ml [8]: 4120 Alamar Blue Units
- Alamar Blue Units (cell proliferation), zFGF5 at 200 ng/ml [8]: 4200 Alamar Blue Units
- Alamar Blue Units (cell proliferation), zFGF5 at 1.6 ng/ml [9]: 0 Alamar Blue Units
- Alamar Blue Units (cell proliferation), zFGF5 at 3.1 ng/ml [9]: 0 Alamar Blue Units
- Alamar Blue Units (cell proliferation), zFGF5 at 6.2 ng/ml [9]: 0 Alamar Blue Units
- Alamar Blue Units (cell proliferation), zFGF5 at 12.5 ng/ml [9]: 0 Alamar Blue Units
- Alamar Blue Units (cell proliferation), zFGF5 at 25 ng/ml [9]: 1.4 Alamar Blue Units
- Alamar Blue Units (cell proliferation), zFGF5 at 50 ng/ml [9]: 19 Alamar Blue Units
- Alamar Blue Units (cell proliferation), zFGF5 at 100 ng/ml [9]: 189 Alamar Blue Units
- Alamar Blue Units (cell proliferation), zFGF5 at 200 ng/ml [9]: 472 Alamar Blue Units

Binder: B3
- Cell Proliferation (percent of control), BAF3/FGFR3α-IIIc cells with zFGF5, soluble receptor at 0 fold-excess [1]: 100 percent of control
- Cell Proliferation (percent of control), BAF3/FGFR3α-IIIc cells with zFGF5, soluble receptor at 7.5 fold-excess [1]: 92 percent of control
- Cell Proliferation (percent of control), BAF3/FGFR3α-IIIc cells with zFGF5, soluble receptor at 15.4 fold-excess [1]: 96 percent of control
- Cell Proliferation (percent of control), BAF3/FGFR3α-IIIc cells with zFGF5, soluble receptor at 31 fold-excess [1]: 99 percent of control
- Cell Proliferation (percent of control), BAF3/FGFR3α-IIIc cells with zFGF5, soluble receptor at 62.5 fold-excess [1]: 104 percent of control
- Cell Proliferation (percent of control), BAF3/FGFR3α-IIIc cells with zFGF5, soluble receptor at 125 fold-excess [1]: 101 percent of control
- Cell Proliferation (percent of control), BAF3/FGFR3α-IIIc cells with zFGF5, soluble receptor at 250 fold-excess [1]: 100 percent of control
- Cell Proliferation (percent of control), BAF3/FGFR3α-IIIc cells with zFGF5, soluble receptor at 500 fold-excess [1]: 102 percent of control
- Cell Proliferation (percent of control), BAF3/FGFR3α-IIIc cells with zFGF5, soluble receptor at 1000 fold-excess [1]: 92.3 percent of control
